# Results taken from PMC3436905.
# Like-named read-outs stand apart in the source and are kept apart here.
# Columns and labels:
# [1] = target: surface vimentin (human (endogenous in HeLa and HT-29)) (UniProt P08670); test: flow cytometry on cells
# [2] = target: surface vimentin (human (endogenous in HeLa and HT-29)) (UniProt P08670); test: flow cytometry on cells; remark: listed apart in the source
# Sequence of UniProt P08670 (P08670 whole entry): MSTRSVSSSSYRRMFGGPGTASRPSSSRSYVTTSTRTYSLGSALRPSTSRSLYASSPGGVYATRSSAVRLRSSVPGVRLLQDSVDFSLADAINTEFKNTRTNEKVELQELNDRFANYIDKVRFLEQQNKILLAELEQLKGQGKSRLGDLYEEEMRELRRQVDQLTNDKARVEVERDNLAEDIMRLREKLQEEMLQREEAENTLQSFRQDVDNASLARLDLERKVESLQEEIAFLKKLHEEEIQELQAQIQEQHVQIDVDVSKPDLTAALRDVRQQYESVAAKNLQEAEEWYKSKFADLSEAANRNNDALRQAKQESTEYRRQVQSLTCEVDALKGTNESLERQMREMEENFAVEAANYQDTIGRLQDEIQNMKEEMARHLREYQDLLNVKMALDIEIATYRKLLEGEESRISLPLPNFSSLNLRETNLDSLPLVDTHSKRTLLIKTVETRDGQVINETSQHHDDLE
substance,measurement,setting,value
Cowpea mosaic virus nanoparticles (complex),percent of cells positive for CPMV uptake,[1],38%
same,percent of cells positive for CPMV uptake,[2],17%
